From PMC2761088

Target: human recombinant Akt1-GST (not treated with H2O2) (human) (UniProt P31749)
Chain of UniProt P31749 (P31749 whole entry): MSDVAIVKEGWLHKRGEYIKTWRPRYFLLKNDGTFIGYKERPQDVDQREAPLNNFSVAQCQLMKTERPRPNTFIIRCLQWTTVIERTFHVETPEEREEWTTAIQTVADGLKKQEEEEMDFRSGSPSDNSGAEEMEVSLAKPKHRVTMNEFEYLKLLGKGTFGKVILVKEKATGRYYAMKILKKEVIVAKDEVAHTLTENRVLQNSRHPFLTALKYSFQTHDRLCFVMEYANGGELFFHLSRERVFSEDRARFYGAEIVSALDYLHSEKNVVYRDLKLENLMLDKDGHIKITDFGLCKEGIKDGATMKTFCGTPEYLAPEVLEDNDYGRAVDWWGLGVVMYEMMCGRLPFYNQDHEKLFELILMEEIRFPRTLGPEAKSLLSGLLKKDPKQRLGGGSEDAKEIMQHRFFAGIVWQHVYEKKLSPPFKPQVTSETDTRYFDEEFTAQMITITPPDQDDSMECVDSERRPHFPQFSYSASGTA

Substance: PDK1 (PI3K-dependent kinase 1) of NIH/3T3 mitochondrial fractions (from UniProt Q9Z2A0 1-559) (enzyme)
- Akt1 activity (formation of P-GSK-3 α/β in vitro) of Akt1 immunoprecipitated from mitochondrial extracts of NIH cells treated with low to high H2O2; decreased to 45% of control at high H2O2: 150%
